# Assay results as given in patent US20100160234A1.
# Biological target: Native eIF4E of High Five (Trichoplusia ni) insect cells (Trichoplusia ni)
# Assay: cell-based or functional assay
binder,measurement,value
"his-tagged PVY VPg protein (protein, not shown: small tags and cut ends) GKNKSKRIQALKFRHARDKRAGFEIDNNDDTIEEFFGSAYRKKGKGKGTTVGMGKSSRRFINMYGFDPTEYSFIQFVDPLTGAQIEENVYADIRDIQERFSEVRKKMVENDDIEMQALGSNTTIHAYFRKDWSDKALKIDLMPHNPLKVCDKTNGIAKFPERELELRQTGPAVEVDVKDIPAQEVEHE","eIF4E in cytoplasm (%), 12 h p.i., cell fractionation, Western blot and densitometry",53.5%
same,"eIF4E in cytoplasm (%), 24 h p.i., cell fractionation, Western blot and densitometry",81.3%
same,"eIF4E in cytoplasm (%), 36 h p.i., cell fractionation, Western blot and densitometry",83.3%
same,"eIF4E in cytoplasm (%), 48 h p.i., cell fractionation, Western blot and densitometry",74.1%
same,"eIF4E in nucleus (%), 12 h p.i., cell fractionation, Western blot and densitometry",46.5%
same,"eIF4E in nucleus (%), 24 h p.i., cell fractionation, Western blot and densitometry",18.7%
same,"eIF4E in nucleus (%), 36 h p.i., cell fractionation, Western blot and densitometry",16.7%
same,"eIF4E in nucleus (%), 48 h p.i., cell fractionation, Western blot and densitometry",25.9%
